This note sets out measurements from paper PMC10397247.

Where two headings read alike, the source gives them in different places.

Test [1] concerns the target T1, P2-AA-12HAA-R.
T1 chain: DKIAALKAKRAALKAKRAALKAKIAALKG
Nature of the test: two-hybrid library CCmax.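 Also: natural log of median RNA to DNA barcode read ratio; higher means stronger binding.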 As to conditions: mean of both orientations.

Test [2] has as its target T2, P2-AA-12HAA-I.
T2 chain: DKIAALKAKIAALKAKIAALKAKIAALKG
Nature of the test: two-hybrid library CCmax.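 Also: natural log of median RNA to DNA barcode read ratio; higher means stronger binding.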 As to conditions: mean of both orientations.

Test [3] deals with T3, P2-AA-12HAA-E.
T3 chain: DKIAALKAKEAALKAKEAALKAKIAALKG
Nature of the test: two-hybrid library CCmax.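 Also: natural log of median RNA to DNA barcode read ratio; higher means stronger binding.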

The target in test [4] is T4, P2-AA-12HAA-D.
T4 chain: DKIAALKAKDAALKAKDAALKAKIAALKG
The test is described as follows: two-hybrid library CCmax.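 Also: natural log of median RNA to DNA barcode read ratio; higher means stronger binding.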 As to conditions: mean of both orientations.

In test [5] the target is T5, P2-AA.
T5 chain: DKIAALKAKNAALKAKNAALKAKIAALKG
Nature of the test: two-hybrid library CCmax.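 Also: natural log of median RNA to DNA barcode read ratio; higher means stronger binding.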 Conditions: mean of both orientations.

The target in test [6] is T6, P2-AA-12HAA-Y.
T6 chain: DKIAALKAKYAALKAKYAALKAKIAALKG
Nature of the test: two-hybrid library CCmax.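 Also: natural log of median RNA to DNA barcode read ratio; higher means stronger binding.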 Conditions: mean of both orientations.

In test [7] the target is T7, P2-AA-12HAA-K.
T7 chain: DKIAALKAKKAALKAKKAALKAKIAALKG
Nature of the test: two-hybrid library CCmax. Conditions: mean of both orientations.

For test [8], the target named is T8, P2-AA-12HAA-V.
T8 chain: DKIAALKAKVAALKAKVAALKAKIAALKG
The test is described as follows: two-hybrid library CCmax. As to conditions: mean of both orientations.

The target of test [9] is T9, P2-AA-12HAA-L.
T9 chain: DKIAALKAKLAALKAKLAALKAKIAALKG
Nature of the test: two-hybrid library CCmax.

In test [10] the target is T10, P2-AA-12HAA-T.
T10 chain: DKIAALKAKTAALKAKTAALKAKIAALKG
The test is described as follows: two-hybrid library CCmax. As to conditions: mean of both orientations.

Test [11] has as its target T11, P2-AA-12HAA-S.
T11 chain: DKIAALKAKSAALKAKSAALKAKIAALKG
Nature of the test: two-hybrid library CCmax. Conditions: mean of both orientations.

Test [12] deals with T12, P2-AA-12HAA-H.
T12 chain: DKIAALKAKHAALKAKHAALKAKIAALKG
The test is described as follows: two-hybrid library CCmax.

The target in test [13] is T13, P9bHq.
T13 chain: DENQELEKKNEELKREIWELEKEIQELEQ
The test is described as follows: two-hybrid library CCNG1.

Test [14] concerns the target T14, 4H775-AA.
T14 chain: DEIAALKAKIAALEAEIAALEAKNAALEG
Nature of the test: two-hybrid library CCmax. Conditions: mean of both orientations.

The target of test [15] is T15, 4H87-AA.
T15 chain: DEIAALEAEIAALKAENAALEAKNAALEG
The test is described as follows: two-hybrid library CCmax. Conditions: mean of both orientations.

Test [16] addresses T16, 4H278-AA.
T16 chain: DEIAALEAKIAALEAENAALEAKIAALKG
The test is described as follows: two-hybrid library CCmax. Conditions: mean of both orientations.

Test [17] concerns the target T17, 4H2873-AA.
T17 chain: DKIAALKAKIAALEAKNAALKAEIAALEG
Nature of the test: two-hybrid library CCmax. As to conditions: mean of both orientations.

For test [18], the target named is T18, 4H2985-AA.
T18 chain: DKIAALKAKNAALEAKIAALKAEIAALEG
The test is described as follows: two-hybrid library CCmax. As to conditions: mean of both orientations.

The target of test [19] is T19, 4H3409-AA.
T19 chain: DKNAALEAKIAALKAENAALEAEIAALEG
Nature of the test: two-hybrid library CCmax. As to conditions: mean of both orientations.

The target of test [20] is T20, 4H510-AA.
T20 chain: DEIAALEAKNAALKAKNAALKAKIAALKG
Nature of the test: two-hybrid library CCmax. Conditions: mean of both orientations.

Test [21] addresses T21, 4H3940-AA.
T21 chain: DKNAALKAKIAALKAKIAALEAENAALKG
Nature of the test: two-hybrid library CCmax. As to conditions: mean of both orientations.

In test [22] the target is T22, 4H3625-AA.
T22 chain: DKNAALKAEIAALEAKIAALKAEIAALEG
The test is described as follows: two-hybrid library CCmax. Conditions: mean of both orientations.

The target in test [23] is T23, 4H3134-AA.
T23 chain: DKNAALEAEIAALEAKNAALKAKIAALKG
The test is described as follows: two-hybrid library CCmax. As to conditions: mean of both orientations.

For test [24], the target named is T24, 4H816-AA.
T24 chain: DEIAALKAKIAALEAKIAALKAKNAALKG
Nature of the test: two-hybrid library CCmax. Conditions: mean of both orientations.

For test [25], the target named is T25, 4H2758-AA.
T25 chain: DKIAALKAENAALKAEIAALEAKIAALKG
Nature of the test: two-hybrid library CCmax.

In test [26] the target is T26, 4H390-AA.
T26 chain: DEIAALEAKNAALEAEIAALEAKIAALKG
The test is described as follows: two-hybrid library CCmax. Conditions: mean of both orientations.

Test [27] has as its target T27, O9.
T27 chain: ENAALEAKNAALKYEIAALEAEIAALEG
Nature of the test: two-hybrid library CC0. Conditions: mean of both orientations.

Test [28] addresses T28, O5.
T28 chain: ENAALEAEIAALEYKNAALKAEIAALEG
Nature of the test: two-hybrid library CC0. Conditions: mean of both orientations.

In test [29] the target is T29, O7.
T29 chain: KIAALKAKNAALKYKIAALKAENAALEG
The test is described as follows: two-hybrid library CC0. Conditions: mean of both orientations.

In test [30] the target is T30, O6.
T30 chain: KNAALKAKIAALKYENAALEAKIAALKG
Nature of the test: two-hybrid library CC0. Conditions: mean of both orientations.

In test [31] the target is T31, O8.
T31 chain: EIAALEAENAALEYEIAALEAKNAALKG
The test is described as follows: two-hybrid library CC0. Conditions: mean of both orientations.

For test [32], the target named is T32, P2-AA-12HGe-W.
T32 chain: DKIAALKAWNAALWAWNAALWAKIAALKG
Nature of the test: two-hybrid library CCmax.

Test [33] addresses T33, 4H477-bH.
T33 chain: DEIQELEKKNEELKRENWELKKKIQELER
Nature of the test: two-hybrid library CCNG1.

The target in test [34] is T34, 4H40-bH.
T34 chain: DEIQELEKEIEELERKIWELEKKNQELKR
Nature of the test: two-hybrid library CCNG1.

For test [35], the target named is T35, 4H2839-bH.
T35 chain: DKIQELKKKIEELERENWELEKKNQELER
Nature of the test: two-hybrid library CCNG1.

Test [36] deals with T36, 4H3057-bH.
T36 chain: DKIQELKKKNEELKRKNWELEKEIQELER
Nature of the test: two-hybrid library CCNG1.

For test [37], the target named is T37, 4H3277-bH.
T37 chain: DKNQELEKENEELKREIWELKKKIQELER
The test is described as follows: two-hybrid library CCNG1.

The target of test [38] is T38, 4H348-bH.
T38 chain: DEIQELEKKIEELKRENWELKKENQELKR
Nature of the test: two-hybrid library CCNG1.

The target in test [39] is T39, 4H492-bH.
T39 chain: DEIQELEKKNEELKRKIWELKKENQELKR
The test is described as follows: two-hybrid library CCNG1.

For test [40], the target named is T40, 4H2915-bH.
T40 chain: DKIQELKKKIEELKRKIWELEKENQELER
Nature of the test: two-hybrid library CCNG1.

Test [41] has as its target T41, 4H741-bH.
T41 chain: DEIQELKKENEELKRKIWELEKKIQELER
The test is described as follows: two-hybrid library CCNG1.

The target in test [42] is T42, 4H319-bH.
T42 chain: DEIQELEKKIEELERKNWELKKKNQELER
The test is described as follows: two-hybrid library CCNG1.

B1: P1-AA-12HAA-A (peptide)
chain: DEIAALEAEAAALEAEAAALEAEIAALEG
Take B1: the interaction score in test [1] is 0.883; in test [2], 1.82; in test [3] (mean of both orientations), 0.947; in test [4] it was -0.675; in [5] it was 1.79; in test [6], 2. In addition, the interaction score in [7] was 1.48; in [8], 1.9; in [9] (mean of both orientations), 1.84; in test [10], 1.66; in test [11] it was 1.55; in test [12] (mean of both orientations) it was 2.14.

B2: P9bHq (peptide)
chain: DENQELEKKNEELKREIWELEKEIQELEQ
Consider B2, for which, in test [13], the interaction score was -0.654.

B3: 4H2758-AA (peptide)
chain: DKIAALKAENAALKAEIAALEAKIAALKG
B3: the interaction score is -0.652 in [14]; -1.35 in test [15]; -0.138 in [16]; -0.654 in test [17]; 1.59 in test [18]; -0.325 in test [19]. Moreover, the interaction score was 0.225 in test [20]; -1.45 in [21]; -0.393 in test [22]; 0.499 in test [23]; -1.38 in test [24]; 1.56 in [25]. The same molecule displayed an interaction score in test [26] of 0.895.

B4: O5 (peptide)
chain: ENAALEAEIAALEYKNAALKAEIAALEG
In the case of B4, the interaction score in test [27] was -2.73; in test [28] it was -2.78; in test [29], -2.67; in [30] it was 1.41; in test [31], -2.47.

B5: P1-AA-12HAA-D (peptide)
chain: DEIAALEAEDAALEAEDAALEAEIAALEG
As to B5, the interaction score is 1.84 in test [1]; -0.345 in test [2]; -1.33 in test [3] (mean of both orientations); -1.35 in test [4]; -0.884 in test [5]; -1.44 in test [6]. In addition, the interaction score in test [7] is 0.46; in test [8], -0.204; in [32] it was -2.4; in test [9] (mean of both orientations), -1.19; in test [10], -1.11; in test [11] it was 0.438. Also, the interaction score in [12] (mean of both orientations) is 0.205.

B6: P1-AA-12HAA-I (peptide)
chain: DEIAALEAEIAALEAEIAALEAEIAALEG
In the case of B6, the interaction score turned out to be 2 in [1]; 2.05 in [2]; 1.58 in test [3] (mean of both orientations); 1.29 in [4]; 1.8 in test [5]; 1.87 in [6]. Also, the interaction score came to 1.78 in test [7]; 1.79 in test [8]; 2.28 in [9] (mean of both orientations); 1.75 in [10]; 2.16 in test [11]; 1.79 in test [12].

B7: 4H2839-bH (peptide)
chain: DKIQELKKKIEELERENWELEKKNQELER
B7: the interaction score was -0.629 in test [33]; 0.0596 in test [34]; 1.04 in test [35]; 0.0652 in test [36]; -1.06 in [37]; 0.581 in [38]. Also, the interaction score in test [39] was -0.474; in test [40], 0.242; in test [41], -0.868; in [42], 1.44.

B8: P1-AA-12HAA-R (peptide)
chain: DEIAALEAERAALEAERAALEAEIAALEG
As to B8, the interaction score was -1.34 in test [1]; 1.45 in test [2]; 0.85 in test [3] (mean of both orientations); -0.753 in test [4]; 1.8 in [5]; 0.106 in [6]. Further, the interaction score in test [7] was -0.626; in [8], 1.37; in [9] (mean of both orientations) it was 1.95; in test [10], 0.243; in test [11], 1.44; in [12] (mean of both orientations), 0.326.

B9: P1-AA-12HAA-V (peptide)
chain: DEIAALEAEVAALEAEVAALEAEIAALEG
Turning to B9, the interaction score in test [1] was determined as 1.69; in [2], 1.82; in test [3], 1.83; in [4] it was 1.1; in test [5], 2.1; in test [6], 1.8. The interaction score in test [7] stood at 1.35; in test [8], 2.21; in [9], 1.78; in test [10], 1.86; in test [11] it was 1.44; in test [12] (mean of both orientations) it was 1.25.
